# Results published in the RNAGym collection of RNA variant scans (doi:10.7554/elife.80360).
# B1: CPEB3 Ribozyme (parent)
# chain: GGGGGCCACAGCAGAAGCGUUCACGUCGCGGCCCCUGUCAGAUUCUGGUGAAUCUGCGAAUUCUGCUGU
# Variants of: B1
# Assay: self-cleavage, relative activity (ratio to wild type); higher = more cleavage; co-transcriptional
row,Variant,self-cleavage
1,U21C C35G,0.206
2,U21C C35U,0.716
3,U20C G65A,0.141
4,U21A G30U,0.343
5,U21A G30C,0.532
6,U21C A23C,0.608
7,U21C A23U,0.803
8,U20G C33G,0.261
9,U20G C33A,0.135
10,U20G U49A,0.26
11,U20G U49C,0.173
12,U20G U49G,0.27
13,U21A G31U,0.595
14,U21A G31A,0.803
15,U20G C27U,0.0848
16,U21A C32G,0.504
17,U20G C24U,0.144
18,U20G C24G,0.146
19,U20G C29G,0.128
20,U20G C29A,0.198
21,U21C C32G,0.226
22,U21C C32U,0.918
23,U21C C32A,0.741
24,U20C C39G,0.201

row,Variant,self-cleavage
1,U20C C39U,0.176
2,U20C C39A,0.224
3,U20C G58U,0.204
4,U20C G58A,0.161
5,U20C G58C,0.147
6,U21A C66G,0.835
7,U21A C66A,0.781
8,U20G,0.207
9,U21A G65C,0.6
10,U20C U61C,0.182
11,U20C U61A,0.236
12,U20G G56A,0.191
13,U20G G56U,0.199
14,U20G G56C,0.104
15,U20C U44A,0.185
16,U20G C57U,0.143
17,U21A U43G,0.833
18,U21A U43A,0.906
19,U20C C57G,0.261
20,U20G C66U,0.216
21,U20C C27U,0.114
22,U20C C27G,0.136
23,U20C U53C,0.161
24,U20G U64C,0.189

row,Variant,self-cleavage
1,U20C G47C,0.188
2,U20C G47A,0.243
3,U20C G47U,0.239
4,U21A A42C,0.902
5,U21A A42G,0.858
6,U20G U55G,0.106
7,U20G U55C,0.148
8,U20G U55A,0.139
9,U21C C22A,0.24
10,U21A U44G,0.952
11,U21A U44A,0.901
12,U21A U44C,0.817
13,U20C G28A,0.117
14,U20C G28C,0.133
15,U21A C27U,0.162
16,U21A C27A,0.447
17,U21A C57U,0.447
18,U21A C57A,0.268
19,U21A C57G,0.361
20,U21A U62A,0.853
21,U21A U62G,0.798
22,U21A C29G,0.445
23,U21A C29U,0.413
24,U20C U62C,0.204

row,Variant,self-cleavage
1,U20C C33U,0.219
2,U20C C33A,0.286
3,U20C C33G,0.113
4,U21A C54G,0.936
5,U21A C54A,0.872
6,U21A C54U,0.673
7,U21A C35U,0.869
8,U21A C35A,0.323
9,U20C U36A,0.125
10,U20G U21G,0.148
11,U20G U21A,0.252
12,U20G C34G,0.28
13,U20G C34U,0.268
14,U20C U38G,0.24
15,U20C U38A,0.181
16,U20C U38C,0.212
17,U20G G47U,0.226
18,U20G G47C,0.189
19,U20G G47A,0.247
20,U21A C33U,1
21,U21A C33G,0.536
22,U21A C33A,0.808
23,U20G C32U,0.157
24,U20G C32A,0.218

row,Variant,self-cleavage
1,U20G C54U,0.196
2,U20G C54A,0.203
3,U20G C54G,0.118
4,U21A U49G,0.95
5,U21A U49A,0.96
6,U21A U49C,0.972
7,U20G G58U,0.213
8,U20G G58A,0.251
9,U20C G25U,0.616
10,U20C G25C,0.249
11,U20C G25A,0.68
12,U21A A52G,1.01
13,U21A A52C,1.03
14,U21A A52U,0.935
15,U21A U38A,0.276
16,U21A U38C,0.373
17,U21A U38G,0.24
18,U20C C54U,0.182
19,U20C C54G,0.206
20,U20G U44G,0.168
21,U20C U26C,0.235
22,U20C U26G,0.114
23,U20C U26A,0.205
24,U21A C39U,0.928

row,Variant,self-cleavage
1,U21A C39G,0.981
2,U21C C27U,0.138
3,U21C C27A,0.344
4,U20G U69G,0.322
5,U20G U69C,0.281
6,U20G G25A,0.129
7,U20G G25U,0.185
8,U20C U21A,0.208
9,U20C U67G,0.164
10,U20C U67A,0.233
11,U20G U46A,0.164
12,U20G U46C,0.164
13,U20G A42C,0.279
14,U20G A42U,0.216
15,U20G A42G,0.079
16,U21A C34U,0.995
17,U21A C34A,0.708
18,U20G G30A,0.126
19,U20C C63G,0.162
20,U20C C63A,0.138
21,U20C C63U,0.229
22,U20C C45A,0.219
23,U20C C45U,0.201
24,U20C C45G,0.217

row,Variant,self-cleavage
1,U21A G68U,0.976
2,U21A G68C,1.02
3,U20C U69A,0.124
4,U20C U69C,0.427
5,U20G C35G,0.184
6,U20G C35A,0.218
7,U20G C35U,0.171
8,U20G A40C,0.243
9,U20G A40U,0.134
10,U20G A40G,0.169
11,U21A G56U,0.936
12,U21A G56A,0.954
13,U21A G56C,0.755
14,U21A G37U,0.356
15,U21A U46C,0.926
16,U21A U46G,0.934
17,U21A U46A,1.03
18,U21A U61A,0.907
19,U21A U61G,0.94
20,U20G G68C,0.275
21,U20G G68A,0.235
22,U21A U36C,0.693
23,U21A U36G,0.272
